Experimental data: publication PMC10053325
Residue numbers refer to the chain shown, from its start.

Columns and labels:
[1] = target: T1, His-SMAD4^WT, Q13485; experiment: AlphaScreen or HTRF; settings: remark: other sources report otherwise
T1 chain: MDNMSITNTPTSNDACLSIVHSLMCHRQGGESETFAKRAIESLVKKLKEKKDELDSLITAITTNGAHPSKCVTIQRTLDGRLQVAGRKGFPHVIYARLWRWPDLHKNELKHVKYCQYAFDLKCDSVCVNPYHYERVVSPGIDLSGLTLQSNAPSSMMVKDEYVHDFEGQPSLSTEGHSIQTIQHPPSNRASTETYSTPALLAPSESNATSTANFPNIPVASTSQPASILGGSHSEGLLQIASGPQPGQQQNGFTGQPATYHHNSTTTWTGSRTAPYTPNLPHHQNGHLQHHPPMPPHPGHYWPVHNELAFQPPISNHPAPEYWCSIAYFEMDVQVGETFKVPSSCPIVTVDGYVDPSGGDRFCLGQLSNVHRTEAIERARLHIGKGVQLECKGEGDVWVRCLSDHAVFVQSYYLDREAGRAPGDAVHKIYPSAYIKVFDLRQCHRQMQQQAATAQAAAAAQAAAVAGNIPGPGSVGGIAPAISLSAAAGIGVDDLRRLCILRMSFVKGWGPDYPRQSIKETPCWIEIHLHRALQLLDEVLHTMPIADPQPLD

[2] = target: T2, His-SMAD4^R361H, Q13485; experiment: AlphaScreen or HTRF; settings: remark: other sources report otherwise
T2 chain: T1 chain with R361H

B1: Flag-SMAD3, P84022 1-425 (natural protein)
chain: MSSILPFTPPIVKRLLGWKKGEQNGQEEKWCEKAVKSLVKKLKKTGQLDELEKAITTQNVNTKCITIPRSLDGRLQVSHRKGLPHVIYCRLWRWPDLHSHHELRAMELCEFAFNMKKDEVCVNPYHYQRVETPVLPPVLVPRHTEIPAEFPPLDDYSHSIPENTNFPAGIEPQSNIPETPPPGYLSEDGETSDHQMNHSMDAGSPNLSPNPMSPAHNNLDLQPVTYCEPAFWCSISYYELNQRVGETFHASQPSMTVDGFTDPSNSERFCLGLLSNVNRNAAVELTRRHIGRGVRLYYIGGEVFAECLSDSAIFVQSPNCNQRYGWHPATVCKIPPGCNLKIFNNQEFAALLAQSVNQGFEAVYQLTRMCTIRMSFVKGWGAEYRRQTVTSTPCWIELHLNGPLQWLDKVLTQMGSPSIRCSSVS
Question: B1 was tested. Which signal-to-background ratio (TR-FRET) [1] did it give?
Answer: 30 fold

Question: What about the EC50 of Go-6983 in enhancing the PPI [2] of the same binder?
Answer: 15.2 µM

Question: And the EC50 of PKC-412 in enhancing the PPI [2]?
Answer: > 100 µM

Question: And the EC50 of Ro-31-8220 in enhancing the PPI [2]?
Answer: 3.9 µM

Question: What about the EC50 of UCN-1028c in enhancing the PPI [2] of the same binder?
Answer: > 100 µM

Question: What about the signal-to-background ratio (TR-FRET) [2] of the same binder?
Answer: 10 fold
